The values that follow come from article PMC10779274.

Values joined by “and” are separate entries in the source; they are usually repeats but may differ in a detail not shown here. Identical values can stand only once.

The target of experiment [1] is Lsm protein of Haloferax mediterranei (Haloferax mediterranei). As to the kind of experiment: SEC; HiPrep 16/60 Sephacryl S-200 HR, 20 mM Tris-HCl pH 7.5, 1 M NaCl, 0.5 mL/min, calibrated with protein standards; without RNA. A general note: Size exclusion chromatography separates by hydrodynamic size, large species first.
Experiment [2] has the same target. Kind of experiment: SEC; HiPrep 16/60 Sephacryl S-200 HR, 20 mM Tris-HCl pH 7.5, 0.5 M NaCl, 0.5 mL/min, calibrated with protein standards; without RNA; peaks checked by Western blot with anti-Lsm.
The target is the same in experiment [3]. Kind of experiment: SEC; HiPrep 16/60 Sephacryl S-200 HR, 20 mM Tris-HCl pH 7.5, 2 M NaCl, 0.5 mL/min, calibrated with protein standards; without RNA.
Experiment [4] shares this target. Kind of experiment: SEC; HiPrep 16/60 Sephacryl S-200 HR, 20 mM Tris-HCl pH 7.5, 1.5 M NaCl, 0.5 mL/min, calibrated with protein standards; without RNA; peaks checked by Western blot with anti-Lsm.

As usually defined, the stoichiometry N is a count of units in the complex or per binding partner. For “Lsm protein of Haloferax mediterranei (natural protein)”, the stoichiometry N in experiment [1] was 36 subunits; in experiment [2], 36 subunits; in experiment [3], 36 subunits; in experiment [4], 72 subunits and 36 subunits.
